Experiment: soluble on expression in E. coli; label from the status in PepcDB or PDB records

Q: With “MPEITESERAYHLRKMKTRMQRVDVTGDGFISREDYELIAVRIAKIAKLSAEKAEETRQEFLRVADQLGLAPGVRISVEEAAVNATDSLLKMKGEEKAMAVIQSLIMYDCIDTDKDGYVSLPEFKAFLQAVGPDLTDDKAITCFNTLDFNKNGQISRDEFLVTVNDFLFGLEETALANAFYGDLVD” as the sequence, how does the “soluble on expression in E. coli” value read?
A: soluble

Q: With “MAHHHHHHMSLVASQEGLTDLVPCNDQCGGDYTLYTFGQSEKEVTITAPLAPGTRGKSLRVDIKVRHLQIEVPGKGTILAGELYKPINVDDSTWCIQDGKELVVVLTKTNIEYEEWWPHVVIGERQIDLKTLKPPSIRFSDLDGGAQATVAKMMHEQHEKRTDPAFTNA” as the sequence, how does the “soluble on expression in E. coli” value read?
A: soluble

Q: With “MGEHICFRRNERLATVNPYWRGNPMVRGRFFNRQHRFRPGMGSVLKWRLSPNPQRKEKKTVKWDPKVCYLRSLDAVVGDSLIWLGHNSFFLQLAGKRIMFDPVFGNIPFVKRQSEFPANPDIFTEIDYLLISHDHFDHLDKQSITRLLNNNPQMKLFCGLGTGELIKSWFPEMRVIEAGWYQQLEDEGLKITFLPAQHWSKRSVRDGGQRLWGAFMLQGNGVSLYYSGDTGYSTHFREIPDLFGAPDYALLGIGAYKPRWFMRPNHISPYESLTASEEMHAGITIPMHYGTFDLSDEPLHDPPKVFAAEAKKRKIRVEIPYLGEIVKLSKRK” as the sequence, how does the “soluble on expression in E. coli” value read?
A: not soluble

Q: For “MRNIIFTGKGGVGKTSVAAATALKAADMGYKTLIMSTDPAHSLGDSLDIELGPSPVKVAENLWGQEVSVFGDLNLNWDVVREHFAHLMASRGIEGVYAEEMGVLPGMEELFSLSYIKRYNEEQKDFDLLVVDCAPTGETLRLLSLPETFGWFIKMIRNIEKYMVKPVIRPLSKKVKKLDDFVAPEEVYEKVDNLFSSTEGIIDLLADGTKTTMRLVMNPEKMVIKESMRALTYLNLYGITVDRITINRVMPDQSPDPYFQQWRNIQQKYIDQINSAFAPIPVAEVPLFNNEVVGLEMLRKVGEKVYGDENPLDIF”, which “soluble on expression in E. coli” value is on record?
A: not soluble

Q: With “MCENTLAQQKTEEFAPVSDLRAEAYGSTVFLHWTPPYDNPMIPLSESFESGIPAIWKTIDADGDGYNWMHLTNFTGQSGLCVSSASYIGGVGALTPDNYLITPELKLPTDALVEIIYWVCTQDLTAPSEHYAVYSSSTGNNAADFVNLLYEETLTAKRIQSPELIRGNRTQGVWYQRKVVLPNDTKYVAFRHFNSTDNFWLNLDEVSILYTPLPRRAPCPHPGGYTYSVFRDGQKIASGLSALAYIDTDVPYGTQDYCVQVNYLQGDSYKVCKNIVVANSANIYGADKPFALTVVGKTIVASAFKGEITLYDIRGRLIASGCDTLRYKAENGFYLIKIQVNGTVYTEKIQIQ” as the sequence, how does the “soluble on expression in E. coli” value read?
A: not soluble

Q: With “MPKVISQKEFNILSRTKERVNFQIVYTKQRNGLHKAAKEYFFKDKDFTIIEDTPDTPDQPDGPCITKGPKEPGGPEEPNGPDKPEDPKDPDTPDVSEGPKEQGGQKDPGGPDDPSEGKQKVSKPDKYVTHRELDEKLKDFATKADFKRVEDKVDVLFELQKTQGEQIKVQGEQIKAQGKQIEQLTETVKVQGEQIRAQGEQIKAQSEEIKEIKVEQKAQGEQIKELQVEQKAQGKTLQLILKTLEKMNERLEKLESKLEHHHHHH” as the sequence, how does the “soluble on expression in E. coli” value read?
A: not soluble

Q: Which “soluble on expression in E. coli” value does the source give for “MPSVESFELDHNAVVAPYVRHCGVHKVGTDGVVNKFDIRFCQPNKQAMKPDTIHTLEHLLAFTIRSHAEKYDHFDIIDISPMGCQTGYYLVVSGETTSAEIVDLLEDTMKEAVEITEIPAANEKQCGQAKLHDLEGAKRLMRFWLSQDKEELLKVFG” here?
A: soluble

Q: For “MTARYIAIDWGSTNLRAWLYQGEECLESRQSEAGVTRLNGRSPAAVLAEITQHWRDGATPVVMAGMVGSNVGWKIAPYLPLPAAFSDIGQQLTAVGDNIWIIPGLCVSRDDNHNVMRGEETQLLGARALAPSSVYVMPGTHCKWVLADRRQIHDFRTVLTGELHHLLLQLSLVGAGLPPQETSAAAFAAGLQRGINNPAVLPQLFEVRASHVLGALPREQVSEFLSGLLIGAEVATLSDTFAGQQAISLVAGSSLTSRYQQAFAAIGREVSAVAGDTAFQTGIRSIAYAVAN”, which “soluble on expression in E. coli” value is on record?
A: soluble

Q: Which “soluble on expression in E. coli” value does the source give for “MPRARCKRCLRPTGYCLCALIPQIESRTRVLILQHPDEVSHALNTARLAALGLVNAQLCVGEVFDDLHTLLNPPGYQARLLFPGDAAETLTAYAPDATPMLLVVPDGTWRKARKLLHLNPLLAALPRVTLGSVPASRYRLRKAPGPEALSTLEAIVHTLQTLEAPNAFEALLKPFDALIDGQIQAMGNDTYQRNHGNQRLEHHHHHH” here?
A: not soluble

Q: Which “soluble on expression in E. coli” value does the source give for “MGSDKIHHHHHHMEIRPEMFGQARAGAAWPDFGKPHVLRCDTGRSALKLALQCWAGRAGRDFTVWLPHYVCHSVAQAVRQAGHALAYYGHRPSEQIFSPPPTPQAGDLVLLVHYFGLRNRAALDWLSAHATRDFAVLEDCVQSPYTAGVGRLADFAISSLRKWWPTPDGATLASVYALDGLDLAASDEAFISQRMAAKQLRARGIGEERYLQWIDESESRLDDVVPRQASWLAASLLGEADIDVAMAARRENWFALAQGLAGLRGVAPLFRELAVDEIPLAYPVVVSATNRQKLRAALRDRRVFCPVHWDLESDAPEADTLLSARILSIPLDQRYAPADMRKVASMIGEFIAEELN” here?
A: not soluble

Q: With “MSRTKDQAAAVLPTLLSALRLPSISRNWKHLTDTADRDGWPAANLLACLLEIEMAERASRRIQRHREQSGLPAGKTFATFDFDFPSGIRKPHLLSLATGEGWIESGGNILIFGQSGTGKTHVIAAIGHALIDAGRRVLFSTTTEMVQKLQAARRELSLPSMLDKLDKYDLIVLDSCAVRRDVESPSLGATFARRVARATQHKAAALEHHHHHH” as the sequence, how does the “soluble on expression in E. coli” value read?
A: not soluble

Q: Which “soluble on expression in E. coli” value does the source give for “AVMHYTSDTEFCVSCHSMEIPYKEYQGSVHFSNAKGIRAECSDCHIPQEPMDYLITKIRASKDIYHEFVTGKIDTPEKYEAHRKDMAETVWAQFRENDSATCRSCHDFDAMEEFEQSRDAAKMHEYAKANDQTCIDCHKGVAHFAPEAELDSKAFETLMSFTTKTAANAKVVYPVTTINMGEMGTINPTTKLEVMSAEGDNRTVKLNAFQMKGAEQVLYMGEGQRAIVATLTEQGQQALEAGEFEADVYGNEWRAVSLTGAIDSPVVDTLDPVWSYAEELDNVYCATCHAKIPSNHFTV” here?
A: not soluble

Q: With “MGSDKIHHHHHHMKTLSIVWAVVGLMLIGGCDQTPQAQSTQSKSMANVVGTTSANQDDLAFTPIVPGYKFEFPRDHLAHNNFRQEWWYLTANLTTETGEQLGAQWTQFRVALKPTDLQTIAPQVTDATPKSESTWATQQLYLAHSALTSSNAHLAHEKWSRRHSEFAEVKLDPYQIRLDNWHWQSETNALFPATLTVENPDFSYQLKLNSQAPLQYQGANGYSLKSRDGQVASYYYSQPFIEISGEINRNGKMERVTGQGWLDREWSSQFLTKTQQGWDWFALRLNDGSTLMLFQLRDQSPAESAKNAPISAFYSARRMFADGTGRNINSTDNPNDIQMTPLQWQHTVNGDYPVSWQVKIPSENIDITITPLNPNSAMPLSTPYWEGPVQLSGSHTGTGYMELTGY” as the sequence, how does the “soluble on expression in E. coli” value read?
A: not soluble

Q: For “MTRAERKRQHINHALSIGQKRETGLDDITFVHVSLPDLALEQVDISTKIGELSSSSPIFINAMTGGGGKLTYEINKSLARAASQAGIPLAVGSQMSALKDPSERLSYEIVRKENPNGLIFANLGSEATAAQAKEAVEMIGANALQIHLNVIQEIVMPEGDRSFSGALKRIEQICSRVSVPVIVKEVGFGMSKASAGKLYEAGAAAVDIGGYGGTNFSKIENLRRQRQISFFNSWGISTAASLAEIRSEFPASTMIASGGLQDALDVAKAIALGASCTGMAGHFLKALTDSGEEGLLEEIQLILEELKLIMTVLGARTIADLQKAPLVIKGETHHWLTERGVNTSSYSVR”, which “soluble on expression in E. coli” value is on record?
A: soluble

Q: For “MGSDKIHHHHHHMNLKQITYFLAVAEAGQMTAAAKQLHMAQPPLSYQLKALEDELGVRLFERGSRGVRLTGSGQQFMTYAQQIVETVAAAENAARRSGEGEIGTLALGLTSSAGDVLPKQKLQAFNRRYPQVEFALYEDNTYGILDKLRRNILDLAIVRTPFNDDGLASCRLSSDHMIAVAAASQPLPATLTIPDLKQQPLIVYRRFSSLFKTTFAEYGITPIIAVLCDDARTALHWAQMGMGVALVPATMAALASQQSHLAVIDYEPWVTHMTLVWQPEALHNPLVARFVGQLSGGESEKYSK”, which “soluble on expression in E. coli” value is on record?
A: not soluble

Q: For “MVKGVETKTIVGLEVGTSKVVVVVGEVFPDGVVNVLGVGSCPSKGIDRGSITDLDAVVGSIQRAIEAAESMADCQIMSVTLAITGEHIQSLNESGFVPIAESEVTQEEIDSALHTASSIKLPEGL”, which “soluble on expression in E. coli” value is on record?
A: not soluble

Q: With “MKKLINKKETFLTDMLEGLLIAHPELDLIANTVIVKKAKKEHGVAIVSGGGSGHEPAHAGFVAEGMLDAAVCGEVFTSPTPDKILEAIKAVDTGDGVLLVVKNYAGDVMNFEMAQELAEMEGINVQTVIVRDDIAVTNEVQRRGVAGTVFVHKLAGYLAEKGYSLTEIKSRVEALLPEIKSIGMAIEPPLVPTTGKYGFDIEDDKMEIGIGIHGEKGIHREEVKDIDHIVGTLLDELYKEVTANDVILMVNGMGGTPLSELNIVTKYIQQNLAARTVNVAKWFVGDYMTSLDMQGFSITIVPNKPEYLEAFLAPTTSQYFKLEHHHHHH” as the sequence, how does the “soluble on expression in E. coli” value read?
A: soluble

Q: With “AVEPKEDTITVTAAPAPQESAWGPAATIAARQSATGTKTDTPIQKVPQSISVVTAEEMALHQPKSVKEALSYTPGVSVGTRGASNTYDHLIIRGFAAEGQSQNNYLNGLKLQGNFYNDAVIDPYMLERAEIMRGPVSVLYGKSSPGGLLNMVSKRPTTEPLKEVQFKAGTDSLFQTGFDFSDSLDDDGVYSYRLTGLARSANAQQKGSEEQRYAIAPAFTWRPDDKTNFTFLSYFQNEPETGYYGWLPKEGTVEPLPNGKRLPTDFNEGAKNNTYSRNEKMVGYSFDHEFNDTFTVRQNLRFAENKTSQNSVYGYGVCSDPANAYSKQCAALAPADKGHYLARKYVVDDEKLQNFSVDTQLQSKFATGDIDHTLLTGVDFMRMRNDINAWFGYDDSVPLLNLYNPSSHHHHHHGSSVNTDFDFNAKDPANSGPYRILNKQKQTGVYVQDQAQWDKVLVTLGGRYDWADQESLNRVAGTTDKRDDKQFTWRGGVNYLFDNGVTPYFSYSESFEPSSQVGKDGNIFAPSKGKQYEVGVKYVPEDRPIVVTGAVYNLTKTNNLMADPEGSFFSVEGGEIRARGVEIEAKAALSASVNVVGSYTYTDAEYTTDTTYKGNTPAQVPKHMASLWADYTFFDGPLSGLTLGTGGRYTGSSYGDPANSFKVGSYTVVDALVRYDLARVGMAGSNVALHVNNLFDREYVASCFNTYGCFWGAERQVVATATFRF” as the sequence, how does the “soluble on expression in E. coli” value read?
A: soluble

Q: For “MGSDKIHHHHHHMMATIKDIAKEVGCSISTVSRVLNNDPTLSVGDETRSRIFEVAEEIGYRKKTLKTLVKNIAFLYWLTDNEELEDVYFQTMRVEIEKKARENNIELTTYKLEGGIEKIPLDIDGFIAVGSFMNRELEYLRELTPHGVFIDSTPDPAHYDSVRPDLAQITRQAVEVLVEQGHEKIGFIGGTYHNLDTDAEEMDGRERAFRQTMEERDLLREDFIFCRRGFSVDNGHYLMNQAVEQLGEELPTAFYVAADPIAVGCLQVLNEQQIEIPKRVSLISVNDTSISKYVSPPLTTFHIDLEEICQNAIQLLLERVLKKRNIVKTVYIGAELITRKSTL”, which “soluble on expression in E. coli” value is on record?
A: not soluble

Q: For “GSSHHHHHHGSMLNMWKVRELVDKATNVVMNYSEIESKVREATNDDPWGPSGQLMGEIAKATFMYEQFPELMNMLWSRMLKDNKKNWRRVYKSLLLLAYLIRNGSERVVTSAREHIYDLRSLENYHFVDEHGKDQGINIRQKVKELVEFAQDDDRLREERKKAKKNKDKYVGVSSD”, which “soluble on expression in E. coli” value is on record?
A: soluble
